# Measurements reported in patent US20230105029A1 (CHIA TAI TIANQING PHARMACEUTICAL GROUP, published 2023).
# Where a chain is given by its changes, count along the chain named.
# B1: mouse antibody C2C1A1A1 (antibody, V domains shown)
# VH: EVQLVESGGGLVQPGGSLKLSCAASGFTFSTYGMSWVRQTPDKRLELVATINSNGGSTSYPDSVKGRFTISRDNAKNTLYLQMSSLKSEDTAMFYCARFFRFRNAMDYWGQGTSVTVSS
# VL: DIQMTQSPASLSASVGETVTITCRTSENIYSYLAWYQQKQGKSPQFLVYNAKTLAEGVPSRFSGSGSGTQFSLNINSLQSEDFGSYYCQHYYGPPTWTFGGGTKLEIK
# notes: Mouse hybridoma mAb; also called Mouse C2C1A1A1
# B2: mouse antibody C2B2F7B7 (antibody, V domains shown)
# VH: B1 VH with S59N, F94Y, F102I
# VL: B1 VL with T25A, N74K, S80P, P94T
# notes: Mouse hybridoma mAb
# B3: mouse antibody B8G11F2B7G5E8 (antibody, V domains shown)
# VH: EVQLQQSGADLVRPGASVKLSCTASGFNIKDTYMHWVKQRPEQGLEWVGRIDPTNGYTIYASKFQGKATITADTSSNTAYMQLSSLTSGDTAVYHCVSRRPWFAYWGQGTLVTVSA
# VL: DILMTQTPLSLPVSLGAQASISCRSSQSIVHSNGNTYLEWYLQKPGQSPKLLIYKVTNRFSGVPDRFSGSGSGTDFTLKISRVEAEDLGIYYCFQGSHVPYTFGGGTKLEIK
# notes: Mouse hybridoma mAb; also called Mouse B8G11F2B7G5E8; mAb B8G11F2B7G5E8
# B4: mouse antibody B1D2F7D3B5 (antibody, V domains shown)
# VH: EVKLVESGGGLVKPGGSLKLSCAASGFTFSSYAMSWVRQTPEKRLEWVASISSGDSTYYLDSVKGRFTISRDNAMNILYLQMSSLRSEDTAVYYCERSGGSAPYWGQGTLVSVSA
# VL: QIVLTQSPAIMSASPGEMVTISCSASSSVSYMYWYQQKPGSSPKPWIYRTSNLASGVPARFSGSGSGTSYSLTISSMEAEDAATYYCQQYHSFPLTFGAGTKLELK
# notes: Mouse hybridoma mAb
# B5: mouse antibody B9D1D11F8D8 (antibody, V domains shown)
# VH: B4 VH with M75R, M82V, V92M, S112T
# VL: B4 VL with E17D, S30N
# notes: Mouse hybridoma mAb
# B6: chimeric antibody C2C1A1A1 (antibody, human IgG4 S228P, kappa, V domains shown)
# VH: B1 VH
# VL: DIQMTQSPASLSASVGETVTITCRTSENIYSYLAWYQQKQGKSPQFLVYNAKTLAEGVPSRFSGSGSGTQFSLNINSLQSEDFGSYYCQHYYGPPTWTFGGGTKLEIKR
# notes: Mouse variable domains on human IgG4/kappa; also called Chimeric C2C1A1A1; chC2C1A1A1
# B7: chimeric antibody B8G11F2B7G5E8 (antibody, human IgG4 S228P, kappa, V domains shown)
# VH: B3 VH
# VL: DILMTQTPLSLPVSLGAQASISCRSSQSIVHSNGNTYLEWYLQKPGQSPKLLIYKVTNRFSGVPDRFSGSGSGTDFTLKISRVEAEDLGIYYCFQGSHVPYTFGGGTKLEIKR
# notes: Mouse variable domains on human IgG4/kappa; also called Chimeric B8G11F2B7G5E8; chB8G11F2B7G5E8
# Target: human IL4Rα expressed on HEK293T-IL4Rα-STAT6-STAT6LUC-LB2 cells (human, UniProt P24394 26-825)
# Assay: cell-based or functional assay
Binder,"Inhibition on IL4 induced STAT6 phosphorylation (IC50, nM) [nM]","Inhibition on IL13 induced STAT6 phosphorylation (IC50, nM) [nM]"
B1,0.16,0.23
B2,0.17,0.31
B3,0.23,0.47
B4,0.17,0.48
B5,0.23,0.36

# Target: T1, recombinant human IL4Rα-his protein (in house made) (human, UniProt P24394 26-232, limits assumed)
# T1 construct: also called Human IL4Ra-his
# Assay: capture ELISA, biotin-IL4Rα-his
# Experimental: (§1) Plates were washed once with wash buffer (PBS+0.05% w/v Tween-20, PBST) and then blocked with 200 μl/well blocking buffer (5% w/v non-fatty milk in PBST) for 2 hours at 37° C. Plates were washed again and incubated with 100 μl/well serially diluted anti-IL4Rα antibodies of the disclosure, the benchmark or negative control hIgG (human immunoglobulin (pH4) for intravenous injection, Hualan Biological Engineering Inc.) (5-fold dilution in 2.5% w/v non-fatty milk in PBST, starting at 66.7 nM) for 40 minutes at 37° C., and then washed 4 times again. Plates containing captured anti-IL4Rα antibodies were incubated with biotin-labeled human IL4Rα-his protein (in house made with SEQ ID NO: 57, 0.14 nM in 2.5% w/v non-fatty milk in PBST, 100 μl/well) for 40 minutes at 37° C., washed 4 times, and incubated with streptavidin conjugated HRP (1:10000 dilution in PBST, Jackson Immuno Research, Cat #016-030-084, 100 μl/well) for 40 minutes at 37° C. After a final wash, plates were incubated with 100 μl/well ELISA substrate TMB (Innoreagents, Cat #TMB-S-002). The reaction was stopped in 10 minutes at 25° C. with 50 μl/well 1M H₂SO₄, and the absorbance was read at 450 nm. Data was analyzed using Graphpad Prism software and EC₅₀ values were reported.
row,Binder,EC50 [pM]
1,B1,80
2,B2,130
3,B3,40
4,B4,60
5,B5,70

# Target: T1, recombinant human IL4Rα-his protein (in …)
# Assay: capture ELISA, biotin-IL4Rα-his
# Remark: another data set of the same source
row,Binder,EC50 [pM]
1,B6,50
2,B3,210
3,B7,320

# Target: T2, human IL4Rα expressed on 293F-IL4Rα cells (human, UniProt P24394 26-825)
# T2 construct: whole, on cells; also called cell surface human IL4Rα
# Assay: flow cytometry, 293F-IL4Rα cells
# Experimental: (§2) Then, 2×10⁵ cells per well in 96 well-plates were incubated in 100 μL of the anti-IL4Rα antibodies or controls of various concentrations (starting at 80 nM with a 4-fold serial dilution) in FACS buffer for 40 minutes on ice. […] Following an incubation of 40 minutes at 4° C. in dark, cells were washed three times and resuspended in FACS buffer. Fluorescence was measured using a Becton Dickinson FACS Canto II-HTS equipment. Data was analyzed using Graphpad Prism software and EC₅₀ values were reported.
row,Binder,EC50 [pM]
1,B1,160
2,B2,180
3,B3,250
4,B4,250
5,B5,220

# Target: T2, human IL4Rα expressed on 293F-IL4Rα …
# Assay: flow cytometry, 293F-IL4Rα cells
# Remark: another data set of the same source
# Experimental: as §2
row,Binder,EC50 [pM]
1,B1,310
2,B6,630
3,B3,410
4,B7,780

# Target: T2, human IL4Rα expressed on 293F-IL4Rα …
# Assay: flow cytometry on 293F-IL4Rα cells
# Experimental: as §2
row,Binder,EC50 [pM]
1,B1,159
2,B2,183
3,B3,251
4,B4,246
5,B5,221

# Target: T1, recombinant human IL4Rα-his protein (in …)
# Assay: SPR (Biacore), antibody captured, IL4Rα-his flowed
# Experimental: Briefly, goat anti-mouse IgG (GE healthcare, Cat #BR100838, Mouse Antibody Capture Kit) was covalently linked to a CMS chip (carboxy methyl dextran coated chip) via primary amines, using a standard amine coupling kit provided by Biacore (GE healthcare, Pittsburgh, Pa., USA). Un-reacted moieties on the biosensor surface were blocked with ethanolamine. Then, purified anti-IL4Rα antibodies of the disclosure at the concentration of 66.67 nM and an anti-IL4Rα benchmark (Dupilumab®, also referred to as BM) at 10 μg/ml, were flowed onto the chip at a flow rate of 10 μL/min. Then, serially diluted recombinant human IL4Rα-his (in house made, amino acid sequence set forth in SEQ ID NO: 57), cynomolgus monkey IL4Rα-his protein (Sino biological inc., Cat #90897—C08H), or marmoset monkey IL4Rα-his protein (Custom made by Sino biological inc., also referred to as cal-IL4Rα-his, amino acid sequence set forth in SEQ ID NO: 58) in HBS EP buffer (provided by Biacore) was flowed onto the chip at a flow rate of 30 μL/min. The antigen-antibody association kinetics was followed for 2 minutes and the dissociation kinetics was followed for 10 minutes. The association and dissociation curves were fit to a 1:1 Langmuir binding model using BIA evaluation software.
Binder,Kd [pM],koff [s⁻¹],kon [M⁻¹ s⁻¹]
B1,40.1,1.16e-05,290000
B2,554,0.000139,251000
B3,1490,0.000293,197000
B4,623,0.000266,427000
B5,655,0.000274,418000

# Target: T1, recombinant human IL4Rα-his protein (in …)
# Assay: competitive ELISA, blocks biotin-IL4 binding to coated IL4Rα-his
row,Binder,IC50 [pM]
1,B1,1890
2,B6,3120
3,B3,1640
4,B7,1820

# Target: T1, recombinant human IL4Rα-his protein (in …)
# Assay: competitive ELISA: coated human IL4Rα-his, blocked ligand biotin human IL4
row,Binder,IC50 [pM]
1,B1,1890
2,B6,3120
3,B3,1640
4,B7,1820

# Target: T1, recombinant human IL4Rα-his protein (in …)
# Assay: capture ELISA: antibody captured on anti-IgG Fc plate, biotin human IL4Rα-his detected
# Experimental: as §1
row,Binder,EC50 [pM]
1,B1,75.9
2,B2,129
3,B3,39.3
4,B4,64.4
5,B5,70.3

# Target: T1, recombinant human IL4Rα-his protein (in …)
# Assay: competitive ELISA: antibody mixed with biotin human IL4Rα-his, competitor plate-coated Benchmark
# Experimental: The ability of the anti-IL4Rα antibodies of the disclosure to block benchmark-human IL4Rα binding was measured in a competitive ELISA assay. Briefly, the benchmark was coated on 96-well micro plates at 2 μg/mL in PBS, 100 μl per well, and incubated overnight at 4° C. The next day, plates were washed with wash buffer (PBS+0.05% w/v Tween-20, PBST), and blocked with 5% w/v non-fatty milk in PBST for 2 hours at 37° C. tiring plate blocking, the anti-IL4Rα antibodies of the disclosure or controls were diluted with biotin labeled human IL4Rα-his proteins (prepared in-house with SEQ ID NO: 57, 0.55 nM in 2.5% w/v non-fatty milk in PBST), starting at 100 nM with a 4-fold serial dilution, and incubated at 25° C. for 40 minutes. After plate washing, the antibody/IL4Rα-his mixtures were added to benchmark coated plates, 100 μl per well. After incubation at 37° C. for 40 minutes, plates were washed using wash buffer. Then the plates were added and incubated with 100 μl/well streptavidin conjugated HRP for 40 minutes at 37° C. to detect biotin-labeled human IL4Rα-his bound to plates. Plates were washed again using wash buffer. Finally, TMB was added and the reaction was stopped using 1M H₂SO₄, and the absorbance was read at 450 nm. Data was analyzed using Graphpad Prism software and IC₅₀ values were reported.
row,Binder,IC50 [pM]
1,B1,38.3
2,B2,716
3,B3,17.1
4,B4,24
5,B5,20.9
